Experimental data taken from article PMC7789814, “The influence of various regions of the FOXP2 sequence on its structure and DNA-binding function”.

Key:
FOXP1 LZ-END [1] = assay: SEC; 20 µM protein incubated at 20°C for at least 30 min; Superdex 200 10/300 GL; running buffer 500 mM NaCl, 10 mM HEPES pH 7.5, 2 mM DTT; calibrated with 12-200 kDa markers; oligomer size predicted from the monomeric size
FOXP2 FHD-END [2] = assay: SEC; 20 µM protein incubated at 20°C for at least 30 min; HiLoad 16/60 Superdex 75 prep grade; running buffer 500 mM NaCl, 10 mM HEPES pH 7.5, 2 mM DTT; calibrated with 12-200 kDa markers; oligomer size predicted from the monomeric size
FOXP2 LZ-END [3] = assay: SEC; 20 µM protein incubated at 20°C for at least 30 min; Superdex 200 10/300 GL; running buffer 500 mM NaCl, 10 mM HEPES pH 7.5, 2 mM DTT; calibrated with 12-200 kDa markers; oligomer size predicted from the monomeric size
FOXP1 LZ-FHD = target: T1, FOXP1 LZ-FHD (UniProt Q9H334 332-555); assay: fluorescence anisotropy; FA: 10 mM HEPES pH 7.5, 100 mM NaCl, 0.02% NaN3, 500 nM DNA, temperature not stated; EMSA: 10 mM HEPES pH 7.5, 1 mM MgCl2, 100 mM KCl, 10% glycerol, 0.1 mg/ml BSA, 500 nM DNA, on ice, gel at 4 C; details: protein: recombinant; chain copies: 2; blunt
T1 sequence: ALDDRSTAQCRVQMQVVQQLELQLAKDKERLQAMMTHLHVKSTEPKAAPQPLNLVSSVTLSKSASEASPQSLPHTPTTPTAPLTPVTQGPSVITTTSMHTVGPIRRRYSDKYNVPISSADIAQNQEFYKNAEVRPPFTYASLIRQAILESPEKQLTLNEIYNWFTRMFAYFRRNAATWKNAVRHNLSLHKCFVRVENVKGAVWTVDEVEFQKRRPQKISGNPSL

FOXP2 LZ-END [4] = target: T2, FOXP2 LZ-END (UniProt O15409 372-715); assay: as above; details: protein: recombinant; (purified by nickel IMAC); chain copies: 8; blunt
T2 sequence: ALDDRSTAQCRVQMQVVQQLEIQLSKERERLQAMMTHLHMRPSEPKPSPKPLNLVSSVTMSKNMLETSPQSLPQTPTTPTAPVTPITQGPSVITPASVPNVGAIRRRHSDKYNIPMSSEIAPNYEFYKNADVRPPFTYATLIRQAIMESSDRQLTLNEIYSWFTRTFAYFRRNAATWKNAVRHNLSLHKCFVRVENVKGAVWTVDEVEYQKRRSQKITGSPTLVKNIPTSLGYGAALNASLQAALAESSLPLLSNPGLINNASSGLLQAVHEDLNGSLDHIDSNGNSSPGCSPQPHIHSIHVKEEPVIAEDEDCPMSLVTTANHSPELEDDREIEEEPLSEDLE

FOXP1 LZ-END [5] = target: T3, FOXP1 LZ-END (UniProt Q9H334 332-677); assay: as above; details: protein: recombinant; (purified by nickel IMAC); chain copies: 4; blunt
T3 sequence: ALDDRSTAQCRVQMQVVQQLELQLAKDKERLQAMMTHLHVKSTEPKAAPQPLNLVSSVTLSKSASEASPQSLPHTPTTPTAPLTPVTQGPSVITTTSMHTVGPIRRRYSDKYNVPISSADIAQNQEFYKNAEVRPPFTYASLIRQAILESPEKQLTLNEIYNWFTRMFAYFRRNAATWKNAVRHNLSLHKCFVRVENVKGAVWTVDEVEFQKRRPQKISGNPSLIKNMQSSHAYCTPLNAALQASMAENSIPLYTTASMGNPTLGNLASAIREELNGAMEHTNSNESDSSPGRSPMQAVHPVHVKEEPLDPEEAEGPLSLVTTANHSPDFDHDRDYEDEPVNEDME

FOXP2 LZ-FHD = target: T4, FOXP2 LZ-FHD (UniProt O15409 372-594); assay: as above; details: protein: recombinant; (purified by nickel IMAC); chain copies: 2; blunt
T4 sequence: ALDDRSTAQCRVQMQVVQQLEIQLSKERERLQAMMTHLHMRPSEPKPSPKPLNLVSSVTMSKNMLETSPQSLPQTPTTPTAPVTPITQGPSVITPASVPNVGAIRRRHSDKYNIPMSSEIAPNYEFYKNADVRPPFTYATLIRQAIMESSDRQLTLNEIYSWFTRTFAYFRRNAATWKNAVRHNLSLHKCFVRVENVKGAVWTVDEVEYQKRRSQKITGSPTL

FOXP2 FHD-END [6] = target: T5, FOXP2 FHD-END (UniProt O15409 504-715); assay: as above; details: protein: recombinant; (purified by nickel IMAC); chain copies: 2; blunt
T5 sequence: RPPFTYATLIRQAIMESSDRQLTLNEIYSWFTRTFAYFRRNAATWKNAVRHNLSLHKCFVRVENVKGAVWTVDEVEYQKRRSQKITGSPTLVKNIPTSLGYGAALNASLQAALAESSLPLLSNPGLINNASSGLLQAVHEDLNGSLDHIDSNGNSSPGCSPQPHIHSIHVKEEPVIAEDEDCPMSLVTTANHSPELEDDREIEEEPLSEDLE

FOXP2 FHD = target: T6, FOXP2 FHD (UniProt O15409 504-594); assay: as above; details: protein: recombinant; (purified by nickel IMAC); blunt
T6 sequence: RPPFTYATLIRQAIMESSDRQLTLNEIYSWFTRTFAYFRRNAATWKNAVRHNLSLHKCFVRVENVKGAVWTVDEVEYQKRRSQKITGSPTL

FOXP1 LZ-END (domain or fragment)
percent of the species in the larger oligomer (FOXP1 LZ-END [1]): 60% | stoichiometry N (FOXP1 LZ-END [1]): 4

FOXP2 FHD-END (domain or fragment)
stoichiometry N (FOXP2 FHD-END [2]): 2

FOXP2 LZ-END (domain or fragment)
percent of the species in the larger oligomer (FOXP2 LZ-END [3]): 70% | stoichiometry N (FOXP2 LZ-END [3]): < 8

B1: FOXP2 cognate DNA, ROX-labelled (dsDNA)
DNA 1: TTAGGTGTTTACTTTCATAG
DNA 2: CTATGAAAGTAAACACCTAA
Kd (FOXP1 LZ-FHD): 0.766 ± 0.0121 µM | Kd (FOXP2 LZ-END [4]): 0.326 ± 0.0732 µM | Kd (FOXP1 LZ-END [5]): 1.28 ± 0.0704 µM | Kd (FOXP2 LZ-FHD): 0.347 ± 0.0554 µM | Kd (FOXP2 FHD-END [6]): 1.9 ± 0.0251 µM | Kd (FOXP2 FHD): 1.746 ± 0.0159 µM
